Here are results for five molecules from patent publication US20220162334A1 (SHANGHAI HENLIUS BIOTECH, published 2022).

Experiment [1] deals with T1, mouse CD73 on mouse mammary carcinoma 4T1 cells (mouse, UniProt Q61503 29-551).
T1 construct: whole, on cells
T1 sequence (looked up): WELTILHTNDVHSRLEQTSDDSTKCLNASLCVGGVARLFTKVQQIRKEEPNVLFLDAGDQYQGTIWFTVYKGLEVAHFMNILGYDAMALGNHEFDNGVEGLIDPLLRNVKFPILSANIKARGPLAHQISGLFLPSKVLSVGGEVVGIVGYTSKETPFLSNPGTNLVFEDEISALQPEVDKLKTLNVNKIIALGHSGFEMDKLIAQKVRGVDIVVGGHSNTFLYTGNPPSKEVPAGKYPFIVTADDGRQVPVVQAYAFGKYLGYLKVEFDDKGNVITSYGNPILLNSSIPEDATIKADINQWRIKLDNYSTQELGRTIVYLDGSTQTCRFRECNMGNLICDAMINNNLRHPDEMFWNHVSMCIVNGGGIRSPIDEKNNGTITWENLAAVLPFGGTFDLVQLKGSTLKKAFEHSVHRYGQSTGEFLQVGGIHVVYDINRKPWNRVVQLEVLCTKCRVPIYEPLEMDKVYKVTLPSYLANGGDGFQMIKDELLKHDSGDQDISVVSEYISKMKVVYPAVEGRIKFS
Description: flow cytometry on 4T1 cells, FITC anti-human IgG (FIG. 24A). On the procedure: Binding of anti-CD73 antibodies was assessed by incubating the 4T1 or LLC-MK2 cells (1E5 cells/test) with the serially diluted antibodies in FACS buffer (PBS with 2% FBS) at 4° C. for 30 minutes. The cells were washed with FACS buffer and the binding was detected with FITC-labeled goat anti-human IgG (H+L) antibodies at 4° C. for another 30 minutes. The binding of antibodies to cell surface was measured by the mean fluorescent intensity (MFI) of staining. Flow cytometric analyses were performed using the Cytomics FC500 or CytoFLEX flow cytometry (Beckman Coulter Inc.).
FIGS. 24A and 24B illustrate cross-binding of N1 and N4 top variants to mouse and monkey CD73-expressing cells. Anti-CD73 antibodies were tested for the binding to CD73-expressing mouse mammary carcinoma 4T1 cells (FIG. 24A) and monkey kidney epithelial LLC-MK2 cells (FIG. 24B) by flow cytometry. HLX01 was used as the negative control. […] N1 and N4 top variants cannot cross-bind to mouse CD73.
In general terms: Flow cytometry measures light scatter and fluorescence of single cells or particles in a stream.

Experiment [2] concerns the target T2, human CD73 on CD73-expressing human tumor cells (MDA-MB-231, NCI-H292) (human, UniProt P21589 27-549).
T2 construct: whole, on cells; The cell line of each result is named under assay or readout; also called cell surface CD73; surface CD73
T2 sequence (looked up): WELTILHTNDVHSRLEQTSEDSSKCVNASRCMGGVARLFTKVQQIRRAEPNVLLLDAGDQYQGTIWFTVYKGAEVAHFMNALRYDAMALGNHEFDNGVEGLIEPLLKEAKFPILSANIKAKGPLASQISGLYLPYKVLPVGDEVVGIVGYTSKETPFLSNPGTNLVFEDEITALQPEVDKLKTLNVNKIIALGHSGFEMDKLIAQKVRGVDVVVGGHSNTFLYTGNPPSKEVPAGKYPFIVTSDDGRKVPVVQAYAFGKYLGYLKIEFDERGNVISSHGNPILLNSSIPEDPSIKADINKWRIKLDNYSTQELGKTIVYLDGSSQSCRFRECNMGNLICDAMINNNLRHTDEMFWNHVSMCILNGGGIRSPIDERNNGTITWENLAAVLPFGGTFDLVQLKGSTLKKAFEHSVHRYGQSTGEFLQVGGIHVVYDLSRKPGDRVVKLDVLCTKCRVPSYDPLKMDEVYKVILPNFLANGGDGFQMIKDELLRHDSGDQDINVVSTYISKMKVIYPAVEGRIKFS
Description: flow cytometry on MDA-MB-231 cells (FIG. 16B). Here is the method:
Whole cell binding ability of anti-CD73 antibodies were tested by incubating the MDA-MB-231 or NCI-H292 cells with the serial-diluted antibodies in FACS buffer (PBS with 2% FBS) at 4° C. for 30 minutes. Cells were washed with FACS buffer and the binding was detected with FITC-labeled goat anti-human IgG (H+L) antibodies (or PE-labeled goat anti-human IgG Fcγ) at 4° C. for another 30 minutes. The binding of antibodies to cell surface was measured by the mean fluorescent intensity (MFI) of staining. Flow cytometric analyses were performed using the Cytomics FC500 or CytoFLEX flow cytometry (Beckman Coulter Inc.). FIGS. 2B and 2C show selected anti-CD73 antibodies binding to CD73-expressing human tumor cells MDA-MB-231 (human breast adenocarcinoma) cells (FIG. 2B), and NCI-H292 (human mucoepidermoid pulmonary carcinoma) cells (FIG. 2C).
FIGS. 16A-16C show CD73 binding ability of N1 and N4 top variants. Anti-CD73 antibodies were tested the binding to recombinant human CD73 proteins by ELISA (FIG. 16A) and CD73-expressing human tumor cells, MDA-MB-231 (FIG. 16B) and NCI-H292 (FIG. 16C), by flow cytometry. Anti-CD73 ref-1 and anti-CD73 ref-2 antibodies were used as the positive controls, while HLX01 (anti-CD20) was used as the negative control. […] The binding of N1#9-PH to CD73-expressing NCI-H292 cells is slightly better than that of N4#6-3-P and N4#6-4-P.

Experiment [3] concerns the target T2, human CD73 on CD73-expressing human …. Kind of experiment: flow cytometry on MDA-MB-231 cells, biotin-labeled antibody, streptavidin-FITC (FIG. 5C). On the procedure: The binding of anti-CD73 antibodies to cell surface CD73 were tested by incubating the MDA-MB-231 cells with the serially diluted biotin-labeled anti-CD73 antibodies in FACS buffer (PBS with 2% FBS) at 4° C. for 30 minutes. The cells were washed with FACS buffer and the binding was detected with streptavidin-FITC at 4° C. for 30 minutes. Flow cytometric analyses were performed using the Cytomics FC500 (Beckman Coulter Inc.).
The variable sequences of N1, N2 and N4 were cloned into human wild-type or C219S mutant IgG2 Fc backbone. Different IgG isotypes of N1 (FIG. 5A), N2 (FIG. 5B), N4 (FIG. 5C) were tested the binding to CD73-expressing human MDA-MB-231 cells by flow cytometry. Anti-CD73 ref-1 antibody and HLX01 (anti-CD20) were used as the positive and negative control respectively.

B1: N4#6-3-P (antibody, human IgG2, lambda, V domains shown)
VH: QVQLVQSGAEVKKSGSSVKVSCKASGGTFSSYAISWVRQAPGQGLEWMGGIIPIFGTANYAQKFQGRVTITADESTSIAYMELSSLRSEDTAVYYCASDGAVAAYDAFLIWGQGTMVTVSS
VL: QAVLTQPSSVSGAPGQRVTISCTGTSSNIGLGYDIHWYQQLPGTAPKLLMYRFDRRPSGVPDRFSGSKSGTSASLTITGLQVEDEADYYCQSYDSGQRGWVFGGGTKLTVLG
notes: Full-length human IgG2 antibody; also called antibody variant N4#6-3-P; N4 top variant
For the molecule B1, the binding result is given as “no binding” in experiment [1] and “binds” in experiment [2].

B2: N4#6-4-P (antibody, human IgG2, lambda, V domains shown)
VH: QVQLVQSGAEVKKSGSSVKVSCKASGGTFSSYAISWVRQAPGQGLEWMGMIIPIFGTANYAQKFQGRVTITADESTSIAYMELSSLRSEDTAVYYCASDGAVAAYDAFLIWGQGTMVTVSS
VL: QAVLTQPSSVSGAPGQRVTISCTGTSSNIGAGFDIHWYQQLPGTAPKLLMYRFSRRPSGVPDRFSGSKSGTSASLTITGLQVEDEADYYCQSYDSGQRGWVFGGGTKLTVLG
notes: Full-length human IgG2 antibody; also called antibody variant N4#6-4-P; N4 top variant
As for B2, the binding result in experiment [1] was “no binding”; in experiment [2], “binds”.

B3: N1#9-PH (antibody, human IgG2, lambda, V domains shown)
VH: EVQLVESGGGLVQPGRSLRLSCAASGFTFDDYAMHWVRLAPGKGLEWVSGISWNSGSIGYADSVRGRFTISRDNAKNSLYLQMNSLRAEDTALYYCAKDMGWSLLKTNYYGMDVWGQGTTVTVSS
VL: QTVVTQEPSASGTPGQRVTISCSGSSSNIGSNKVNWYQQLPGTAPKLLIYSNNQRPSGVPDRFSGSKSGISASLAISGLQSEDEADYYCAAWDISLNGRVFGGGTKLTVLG
notes: Full-length human IgG2 antibody; also called antibody variant N1#9-PH; N1 top variant
On to B3, for which the figures for the binding result in experiment [1] and in experiment [2] were “no binding” and “binds”, respectively.

B4: N4 with wtIgG2 isotype (antibody)
heavy: QVQLVQSGAEVKKSGSSVKVSCKASGGTFSSYAISWVRQAPGQGLEWMGGIIPIFGTANYAQKFQGRVTITADESTSIAYMELSSLRSEDTAVYYCASDGAVAAYDAFDIWGQGTMVTVSSASTKGPSVFPLAPCSRSTSESTAALGCLVKDYFPEPVTVSWNSGALTSGVHTFPAVLQSSGLYSLSSVVTVPSSNFGTQTYTCNVDHKPSNTKVDKTVERKCCVECPPCPAPPVAGPSVFLFPPKPKDTLMISRTPEVTCVVVDVSHEDPEVQFNWYVDGVEVHNAKTKPREEQFNSTFRVVSVLTVVHQDWLNGKEYKCKVSNKGLPAPIEKTISKTKGQPREPQVYTLPPSREEMTKNQVSLTCLVKGFYPSDIAVEWESNGQPENNYKTTPPMLDSDGSFFLYSKLTVDKSRWQQGNVFSCSVMHEALHNHYTQKSLSLSPGK
light: QAVLTQPSSVSGAPGQRVTISCTGTSSNIGAGYDIHWYQQLPGTAPKLLMYRFTRRPSGVPDRFSGSKSGTSASLTITGLQVEDEADYYCQSYDSGLRGWVFGGGTKLAVLGQPKAAPSVTLFPPSSEELQANKATLVCLISDFYPGAVTVAWKADSSPVKAGVETTTPSKQSNSKYAASSYLSLTPEQWKSHRSYSCQVTHEGSTVEKTVALTECS
notes: also called N4-wtIgG2; N4 clone, wtIgG2 isotype
B4: the binding result in experiment [3] is “binds”.

B5: N4 with mtIgG2 isotype (antibody)
heavy: QVQLVQSGAEVKKSGSSVKVSCKASGGTFSSYAISWVRQAPGQGLEWMGGIIPIFGTANYAQKFQGRVTITADESTSIAYMELSSLRSEDTAVYYCASDGAVAAYDAFDIWGQGTMVTVSSASTKGPSVFPLAPCSRSTSESTAALGCLVKDYFPEPVTVSWNSGALTSGVHTFPAVLQSSGLYSLSSVVTVPSSNFGTQTYTCNVDHKPSNTKVDKTVERKSCVECPPCPAPPVAGPSVFLFPPKPKDTLMISRTPEVTCVVVDVSHEDPEVQFNWYVDGVEVHNAKTKPREEQFNSTFRVVSVLTVVHQDWLNGKEYKCKVSNKGLPAPIEKTISKTKGQPREPQVYTLPPSREEMTKNQVSLTCLVKGFYPSDIAVEWESNGQPENNYKTTPPMLDSDGSFFLYSKLTVDKSRWQQGNVFSCSVMHEALHNHYTQKSLSLSPGK
light: QAVLTQPSSVSGAPGQRVTISCTGTSSNIGAGYDIHWYQQLPGTAPKLLMYRFTRRPSGVPDRFSGSKSGTSASLTITGLQVEDEADYYCQSYDSGLRGWVFGGGTKLAVLGQPKAAPSVTLFPPSSEELQANKATLVCLISDFYPGAVTVAWKADSSPVKAGVETTTPSKQSNSKYAASSYLSLTPEQWKSHRSYSCQVTHEGSTVEKTVALTECS
notes: also called N4-mtIgG2; N4 clone, mtIgG2 isotype
Take B5: in experiment [3], the binding result is “binds”.
